The results in this text go back to publication doi:10.1101/2021.12.25.474155.

The data set deals with NCAP (SARS-CoV-2) (UniProt P0DTC9). Description: EMSA. On the technique in general: A gel shift assay detects complexes by their altered migration in electrophoresis.

The Kd is the equilibrium constant for the complex coming apart. A low value points to higher affinity.

“GGAUUAAAGGUUUAUACCUUCCCAGGUAACAAACCAACCAACUUUCGAUCUCUUGUAGAUCUGUUCUCUAAACGAACUUUAAAAUCUGUGUGGCUGUCACUCGGCUGCAUGCUUAGUGCACUCACGCAGUAUAAUUAAUAACUAAUUACUGUCGUUGACAGGACACGAGUAACUCGUCUAUCUUCUGCAGGCUGCUUACGGUUUCGUCCGUGUUGCAGCCGAUCAUCAGCACAUCUAGGUUUCGUCCGGGUGUGACCGAAAGGUAAGAUGGAGAGCCUUGUCCCUGGUUUCAACGAGAAAACACACGUCCAACUCAGUUUGCCUGUUUUACAGGUUCGCGACGUGCUCGUACGUGGCUUUGGAGACUCCGUGGAGGAGGUCUUAUCAGAGGCACGUCAACAUCUUAAA [F406]”: the Kd amounted to 1.2 nM.

For the sequence “GGCUGUGUGGCUGUCACUCGGCUGCAUGCUUAGUGCACUCACGCAGUAUAAUUAAUAACUAAUUACUGUCGUUGACAGGACACGAGUAACUCGUCUAUCUUCUGCAGGCUGCUUACGGUUUCGUCCGUGUUGCAGCCGAUCAUCAGCACAUCUAGGUUUCGUCCGGGUGUGACCGAAAGGUAAGAUGGAGAGCCUUGUCCCUGGUUUCAACGAGAAAACACACGUCCAACUCAGUUUGCCUGUUUUACAGGUUCGCGACGUGCUCGUACGUGGCUUUGGAGACUCCGUGGAGGAGGUCUUAUCAGAGGCACGUCAACAUCUUAAA [F323]”, the Kd came out at 29 nM.
